Results published in patent US20250092426, “CAS ENDONUCLEASES AND RELATED METHODS” (Flagship Pioneering Innovations VII, LLC, published 2025).

Target: T1, CasEnd-16 (synthetic construct)
T1 chain: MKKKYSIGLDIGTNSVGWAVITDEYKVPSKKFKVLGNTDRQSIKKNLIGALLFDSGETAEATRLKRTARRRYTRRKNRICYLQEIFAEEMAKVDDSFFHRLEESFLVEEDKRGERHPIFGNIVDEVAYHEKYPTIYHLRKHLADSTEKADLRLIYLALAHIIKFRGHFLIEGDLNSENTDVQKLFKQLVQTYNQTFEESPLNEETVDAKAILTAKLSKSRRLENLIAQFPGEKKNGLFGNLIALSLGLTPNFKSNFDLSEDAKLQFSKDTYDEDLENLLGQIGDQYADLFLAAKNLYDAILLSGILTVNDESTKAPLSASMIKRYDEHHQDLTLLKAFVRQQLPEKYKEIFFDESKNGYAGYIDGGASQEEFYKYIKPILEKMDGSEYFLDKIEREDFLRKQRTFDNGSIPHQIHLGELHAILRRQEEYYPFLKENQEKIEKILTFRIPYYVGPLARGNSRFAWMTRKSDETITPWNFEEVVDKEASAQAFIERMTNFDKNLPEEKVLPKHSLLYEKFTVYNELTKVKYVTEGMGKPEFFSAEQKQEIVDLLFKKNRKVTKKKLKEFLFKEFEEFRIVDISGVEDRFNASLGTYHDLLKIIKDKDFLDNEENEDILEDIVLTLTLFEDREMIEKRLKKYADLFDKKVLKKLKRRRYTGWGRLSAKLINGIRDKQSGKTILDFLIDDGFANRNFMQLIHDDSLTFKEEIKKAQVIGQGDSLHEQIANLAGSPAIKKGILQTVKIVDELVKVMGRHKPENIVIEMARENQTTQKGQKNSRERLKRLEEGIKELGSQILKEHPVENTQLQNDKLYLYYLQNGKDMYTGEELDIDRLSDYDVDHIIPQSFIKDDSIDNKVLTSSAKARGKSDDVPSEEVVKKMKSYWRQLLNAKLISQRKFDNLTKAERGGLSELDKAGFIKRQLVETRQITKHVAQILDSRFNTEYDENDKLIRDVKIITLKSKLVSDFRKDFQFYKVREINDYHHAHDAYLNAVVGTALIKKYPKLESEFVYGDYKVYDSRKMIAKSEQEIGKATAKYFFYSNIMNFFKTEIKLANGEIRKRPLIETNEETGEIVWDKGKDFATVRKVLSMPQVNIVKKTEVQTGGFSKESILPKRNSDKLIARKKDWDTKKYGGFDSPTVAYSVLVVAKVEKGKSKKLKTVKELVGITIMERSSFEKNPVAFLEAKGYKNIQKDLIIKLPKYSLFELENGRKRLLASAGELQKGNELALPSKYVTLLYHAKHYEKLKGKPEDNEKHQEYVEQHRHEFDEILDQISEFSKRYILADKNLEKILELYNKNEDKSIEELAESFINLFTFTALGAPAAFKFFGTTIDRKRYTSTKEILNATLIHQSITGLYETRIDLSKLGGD
Experiment: cell_activity; +++; HEK293T; PAM not stated
Method: The ability of the candidate endonucleases, including endonucleases 1-38 (CasEnds 1-38) (set forth in Table 1 and SEQ ID NOS: 1-38, respectively), to mediate target nucleic acid editing was assessed utilizing a blue fluorescent protein (BFP) to green fluorescent protein (GFP) conversion assay, wherein programmed nucleotide editing of the BFP gene was measured by the expression of GFP (signifying the conversion of […] via the programmed nucleotide edit in the BFP gene). The conversion assay was conducted utilizing the reverse transcriptase-based system (as described above in Example 2) comprising a template RNA (designed to convert BFP to GFP) and a fusion protein comprising a retroviral reverse transcriptase and the individual subject Cas endonuclease. The amino acid sequence of the base portion of the fusion protein (without the individual subject Cas endonuclease) is set forth in Table 7 (SEQ ID NO: 43).
Briefly, 200 ng of plasmid DNA encoding the subject fusion protein (containing one of the subject CasEnds) and 200 ng of template RNA (in plasmid format) were added to 25 μL SF buffer containing 250,000 HEK293T BFP-expressing cells. Nucleofection was mediated utilizing program DS-150. The day of nucleofection was marked as day 0. At day 4, the cells were harvested and analyzed by flow cytometry to assess the level of BFP and GFP expression in HEK293T cells. Cells having GFP signal were defined as having undergone a successful editing event, and the percent of cells that were GFP+ on day 4 was used to determine the performance of each Cas endonuclease.

B1: BFP-to-GFP template RNA ; BFP reporter protospacer (ssRNA ; dsDNA)
RNA: GCCGAAGCACUGCACGCCGUGUUUUAGAGCUAGAAAUAGCAAGUUAAAAUAAGGCUAGUCCGUUAUCAACUUGAAAAAGUGGCACCGAGUCGGUGCACCCUGACGUACGGCGUGCAGUGCUU
DNA 1: GCCGAAGCACTGCACGCCGT
DNA 2: ACGGCGTGCAGTGCTTCGGC
  activity: ≥ 100 % of reference
